Measured values taken from patent US12679878B2, “CRF2 receptor agonists and their use in therapy” (SANOFI, priority 2020, dated 2026).
Starred links: 1 amine or outer side, 2 acyl side, 3 side chain; linkers in the order of their positions; H or OH if unused. Non-standard residues stand in square brackets, D forms with d. Groups on a side chain read outwards from the residue. No end group written: not given here. *: point of attachment. C16 diacid = O=C(O)CCCCCCCCCCCCCCC(=O)*; γGlu = O=C(O)[C@H](CCC(=O)[*:2])N[*:1]; AEEA = NCCOCCOCC(=O)O; Aib = CC(C)(N)C(=O)O

T1: CRF1R receptor (anti-target) (UniProt P34998 24-415, limits assumed)
T1 sequence (looked up): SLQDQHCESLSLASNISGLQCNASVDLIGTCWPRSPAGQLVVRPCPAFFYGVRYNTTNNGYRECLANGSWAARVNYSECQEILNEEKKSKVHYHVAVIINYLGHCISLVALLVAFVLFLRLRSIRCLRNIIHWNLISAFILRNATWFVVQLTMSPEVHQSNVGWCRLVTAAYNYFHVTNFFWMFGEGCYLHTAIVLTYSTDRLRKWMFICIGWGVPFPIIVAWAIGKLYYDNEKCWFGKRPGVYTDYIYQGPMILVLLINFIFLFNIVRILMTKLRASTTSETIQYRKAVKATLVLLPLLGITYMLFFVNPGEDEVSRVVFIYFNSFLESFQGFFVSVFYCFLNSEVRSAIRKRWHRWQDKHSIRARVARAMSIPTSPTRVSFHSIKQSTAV

B1: peptide of SEQ ID NO: 202 (peptide)
peptide: IVLSLD[dV]PIGLK([AEEA-AEEA-γGlu-C16 diacid])QILLKQERQKK[Aib]REQAETNKQILAQV-NH2
modifications: N-terminus assumed
SMILES: CC[C@H](C)[C@H](N)C(=O)N[C@H](C(=O)N[C@@H](CC(C)C)C(=O)N[C@@H](CO)C(=O)N[C@@H](CC(C)C)C(=O)N[C@@H](CC(=O)O)C(=O)N[C@@H](C(=O)N1CCC[C@H]1C(=O)N[C@H](C(=O)NCC(=O)N[C@@H](CC(C)C)C(=O)N[C@@H](CCCCNC(=O)COCCOCCNC(=O)COCCOCCNC(=O)CC[C@H](NC(=O)CCCCCCCCCCCCCCC(=O)O)C(=O)O)C(=O)N[C@@H](CCC(N)=O)C(=O)N[C@H](C(=O)N[C@@H](CC(C)C)C(=O)N[C@@H](CC(C)C)C(=O)N[C@@H](CCCCN)C(=O)N[C@@H](CCC(N)=O)C(=O)N[C@@H](CCC(=O)O)C(=O)N[C@@H](CCCNC(=N)N)C(=O)N[C@@H](CCC(N)=O)C(=O)N[C@@H](CCCCN)C(=O)N[C@@H](CCCCN)C(=O)NC(C)(C)C(=O)N[C@@H](CCCNC(=N)N)C(=O)N[C@@H](CCC(=O)O)C(=O)N[C@@H](CCC(N)=O)C(=O)N[C@@H](C)C(=O)N[C@@H](CCC(=O)O)C(=O)N[C@H](C(=O)N[C@@H](CC(N)=O)C(=O)N[C@@H](CCCCN)C(=O)N[C@@H](CCC(N)=O)C(=O)N[C@H](C(=O)N[C@@H](CC(C)C)C(=O)N[C@@H](C)C(=O)N[C@@H](CCC(N)=O)C(=O)N[C@H](C(N)=O)C(C)C)[C@@H](C)CC)[C@@H](C)O)[C@@H](C)CC)[C@@H](C)CC)C(C)C)C(C)C
B2: peptide of SEQ ID NO: 203 (peptide)
peptide: IVLSLD[dV]PIGLK([AEEA-AEEA-γGlu-γGlu-C16 diacid])QILLKQERQKK[Aib]REQAETNKQILAQV-NH2
modifications: N-terminus assumed
SMILES: CC[C@H](C)[C@H](N)C(=O)N[C@H](C(=O)N[C@@H](CC(C)C)C(=O)N[C@@H](CO)C(=O)N[C@@H](CC(C)C)C(=O)N[C@@H](CC(=O)O)C(=O)N[C@@H](C(=O)N1CCC[C@H]1C(=O)N[C@H](C(=O)NCC(=O)N[C@@H](CC(C)C)C(=O)N[C@@H](CCCCNC(=O)COCCOCCNC(=O)COCCOCCNC(=O)CC[C@H](NC(=O)CC[C@H](NC(=O)CCCCCCCCCCCCCCC(=O)O)C(=O)O)C(=O)O)C(=O)N[C@@H](CCC(N)=O)C(=O)N[C@H](C(=O)N[C@@H](CC(C)C)C(=O)N[C@@H](CC(C)C)C(=O)N[C@@H](CCCCN)C(=O)N[C@@H](CCC(N)=O)C(=O)N[C@@H](CCC(=O)O)C(=O)N[C@@H](CCCNC(=N)N)C(=O)N[C@@H](CCC(N)=O)C(=O)N[C@@H](CCCCN)C(=O)N[C@@H](CCCCN)C(=O)NC(C)(C)C(=O)N[C@@H](CCCNC(=N)N)C(=O)N[C@@H](CCC(=O)O)C(=O)N[C@@H](CCC(N)=O)C(=O)N[C@@H](C)C(=O)N[C@@H](CCC(=O)O)C(=O)N[C@H](C(=O)N[C@@H](CC(N)=O)C(=O)N[C@@H](CCCCN)C(=O)N[C@@H](CCC(N)=O)C(=O)N[C@H](C(=O)N[C@@H](CC(C)C)C(=O)N[C@@H](C)C(=O)N[C@@H](CCC(N)=O)C(=O)N[C@H](C(N)=O)C(C)C)[C@@H](C)CC)[C@@H](C)O)[C@@H](C)CC)[C@@H](C)CC)C(C)C)C(C)C
B3: peptide of SEQ ID NO: 200 (peptide)
peptide: IVLSLD[dV]PIKLK([AEEA-AEEA-γGlu-C16 diacid])QILLKQERQKK[Aib]RQKAEKNKQILAQV-NH2
modifications: N-terminus assumed
SMILES: CC[C@H](C)[C@H](N)C(=O)N[C@H](C(=O)N[C@@H](CC(C)C)C(=O)N[C@@H](CO)C(=O)N[C@@H](CC(C)C)C(=O)N[C@@H](CC(=O)O)C(=O)N[C@@H](C(=O)N1CCC[C@H]1C(=O)N[C@H](C(=O)N[C@@H](CCCCN)C(=O)N[C@@H](CC(C)C)C(=O)N[C@@H](CCCCNC(=O)COCCOCCNC(=O)COCCOCCNC(=O)CC[C@H](NC(=O)CCCCCCCCCCCCCCC(=O)O)C(=O)O)C(=O)N[C@@H](CCC(N)=O)C(=O)N[C@H](C(=O)N[C@@H](CC(C)C)C(=O)N[C@@H](CC(C)C)C(=O)N[C@@H](CCCCN)C(=O)N[C@@H](CCC(N)=O)C(=O)N[C@@H](CCC(=O)O)C(=O)N[C@@H](CCCNC(=N)N)C(=O)N[C@@H](CCC(N)=O)C(=O)N[C@@H](CCCCN)C(=O)N[C@@H](CCCCN)C(=O)NC(C)(C)C(=O)N[C@@H](CCCNC(=N)N)C(=O)N[C@@H](CCC(N)=O)C(=O)N[C@@H](CCCCN)C(=O)N[C@@H](C)C(=O)N[C@@H](CCC(=O)O)C(=O)N[C@@H](CCCCN)C(=O)N[C@@H](CC(N)=O)C(=O)N[C@@H](CCCCN)C(=O)N[C@@H](CCC(N)=O)C(=O)N[C@H](C(=O)N[C@@H](CC(C)C)C(=O)N[C@@H](C)C(=O)N[C@@H](CCC(N)=O)C(=O)N[C@H](C(N)=O)C(C)C)[C@@H](C)CC)[C@@H](C)CC)[C@@H](C)CC)C(C)C)C(C)C
B4: peptide of SEQ ID NO: 201 (peptide)
peptide: IVLSLD[dV]PIKLK([AEEA-AEEA-γGlu-γGlu-C16 diacid])QILLKQERQKK[Aib]RQKAEKNKQILAQV-NH2
modifications: N-terminus assumed
SMILES: CC[C@H](C)[C@H](N)C(=O)N[C@H](C(=O)N[C@@H](CC(C)C)C(=O)N[C@@H](CO)C(=O)N[C@@H](CC(C)C)C(=O)N[C@@H](CC(=O)O)C(=O)N[C@@H](C(=O)N1CCC[C@H]1C(=O)N[C@H](C(=O)N[C@@H](CCCCN)C(=O)N[C@@H](CC(C)C)C(=O)N[C@@H](CCCCNC(=O)COCCOCCNC(=O)COCCOCCNC(=O)CC[C@H](NC(=O)CC[C@H](NC(=O)CCCCCCCCCCCCCCC(=O)O)C(=O)O)C(=O)O)C(=O)N[C@@H](CCC(N)=O)C(=O)N[C@H](C(=O)N[C@@H](CC(C)C)C(=O)N[C@@H](CC(C)C)C(=O)N[C@@H](CCCCN)C(=O)N[C@@H](CCC(N)=O)C(=O)N[C@@H](CCC(=O)O)C(=O)N[C@@H](CCCNC(=N)N)C(=O)N[C@@H](CCC(N)=O)C(=O)N[C@@H](CCCCN)C(=O)N[C@@H](CCCCN)C(=O)NC(C)(C)C(=O)N[C@@H](CCCNC(=N)N)C(=O)N[C@@H](CCC(N)=O)C(=O)N[C@@H](CCCCN)C(=O)N[C@@H](C)C(=O)N[C@@H](CCC(=O)O)C(=O)N[C@@H](CCCCN)C(=O)N[C@@H](CC(N)=O)C(=O)N[C@@H](CCCCN)C(=O)N[C@@H](CCC(N)=O)C(=O)N[C@H](C(=O)N[C@@H](CC(C)C)C(=O)N[C@@H](C)C(=O)N[C@@H](CCC(N)=O)C(=O)N[C@H](C(N)=O)C(C)C)[C@@H](C)CC)[C@@H](C)CC)[C@@H](C)CC)C(C)C)C(C)C
B5: peptide of SEQ ID NO: 199 (peptide)
peptide: IVLSLD[dV]PIKLK([AEEA-AEEA-γGlu-γGlu-C16 diacid])QILLKQERQK[Aib]QREQAEKNKQILAQV-NH2
modifications: N-terminus assumed
SMILES: CC[C@H](C)[C@H](N)C(=O)N[C@H](C(=O)N[C@@H](CC(C)C)C(=O)N[C@@H](CO)C(=O)N[C@@H](CC(C)C)C(=O)N[C@@H](CC(=O)O)C(=O)N[C@@H](C(=O)N1CCC[C@H]1C(=O)N[C@H](C(=O)N[C@@H](CCCCN)C(=O)N[C@@H](CC(C)C)C(=O)N[C@@H](CCCCNC(=O)COCCOCCNC(=O)COCCOCCNC(=O)CC[C@H](NC(=O)CC[C@H](NC(=O)CCCCCCCCCCCCCCC(=O)O)C(=O)O)C(=O)O)C(=O)N[C@@H](CCC(N)=O)C(=O)N[C@H](C(=O)N[C@@H](CC(C)C)C(=O)N[C@@H](CC(C)C)C(=O)N[C@@H](CCCCN)C(=O)N[C@@H](CCC(N)=O)C(=O)N[C@@H](CCC(=O)O)C(=O)N[C@@H](CCCNC(=N)N)C(=O)N[C@@H](CCC(N)=O)C(=O)N[C@@H](CCCCN)C(=O)NC(C)(C)C(=O)N[C@@H](CCC(N)=O)C(=O)N[C@@H](CCCNC(=N)N)C(=O)N[C@@H](CCC(=O)O)C(=O)N[C@@H](CCC(N)=O)C(=O)N[C@@H](C)C(=O)N[C@@H](CCC(=O)O)C(=O)N[C@@H](CCCCN)C(=O)N[C@@H](CC(N)=O)C(=O)N[C@@H](CCCCN)C(=O)N[C@@H](CCC(N)=O)C(=O)N[C@H](C(=O)N[C@@H](CC(C)C)C(=O)N[C@@H](C)C(=O)N[C@@H](CCC(N)=O)C(=O)N[C@H](C(N)=O)C(C)C)[C@@H](C)CC)[C@@H](C)CC)[C@@H](C)CC)C(C)C)C(C)C

Each binder was assayed against T1, CRF1R receptor (anti-target) (assay: cell-based or functional assay).
B1 was tested, and the “EC50 [nM] 0% HSA (cAMP, HTRF)” value was greater than 100 nM and the “Emax (%) (100% = Sauvagine at 100 nM)” value was 5.4%.
In the case of B2, the “EC50 [nM] 0% HSA (cAMP, HTRF)” value is reported as greater than 100 nM and the “Emax (%) (100% = Sauvagine at 100 nM)” value is reported as 4.7%.
B3 was tested, and the “EC50 [nM] 0% HSA (cAMP, HTRF)” value was greater than 100 nM and the “Emax (%) (100% = Sauvagine at 100 nM)” value was 1.9%.
B4 was tested, and the “EC50 [nM] 0% HSA (cAMP, HTRF)” value was greater than 100 nM and the “Emax (%) (100% = Sauvagine at 100 nM)” value was -2.8%.
In the case of B5, the “EC50 [nM] 0% HSA (cAMP, HTRF)” value is reported as greater than 100 nM and the “Emax (%) (100% = Sauvagine at 100 nM)” value is reported as -2.9%.

These binders were tested against human corticotropin-releasing factor 2α (CRF2α receptor) (human), Q13324 (assay: cell-based or functional assay).
human corticotropin-releasing factor 2α (CRF2α receptor) (human), Q13324, sequence (Q13324 20-411): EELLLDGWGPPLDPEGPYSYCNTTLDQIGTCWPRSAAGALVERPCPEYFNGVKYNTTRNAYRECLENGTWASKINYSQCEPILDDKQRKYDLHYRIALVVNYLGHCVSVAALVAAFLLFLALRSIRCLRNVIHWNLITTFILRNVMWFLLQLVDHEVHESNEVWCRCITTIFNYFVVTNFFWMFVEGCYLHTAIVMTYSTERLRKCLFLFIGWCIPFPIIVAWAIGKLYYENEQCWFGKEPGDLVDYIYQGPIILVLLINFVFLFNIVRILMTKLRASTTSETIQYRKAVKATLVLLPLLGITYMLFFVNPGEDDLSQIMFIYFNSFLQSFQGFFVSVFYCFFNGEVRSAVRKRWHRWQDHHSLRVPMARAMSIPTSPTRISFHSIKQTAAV
B1 gave an EC50 [nM], 0% HSA (cAMP, HTRF) of 0.87 nM.
B2 gave an EC50 [nM], 0% HSA (cAMP, HTRF) of 4.7 nM.
B3 showed an EC50 [nM], 0% HSA (cAMP, HTRF) of 8.7 nM.
In the case of B4, the EC50 [nM], 0% HSA (cAMP, HTRF) is reported as 4.66 nM.
Work on B5 yielded an EC50 [nM], 0% HSA (cAMP, HTRF) of 1.39 nM.
